Data published in US20110142851A1 (EMERGENT PRODUCT DEVELOPMENT SEATTLE, published 2011).
Blank lines part the entries; values can stand above or below the binder they belong to.

What was measured:
[1] = biological target: T1, Hyper-IL6 (human); experiment: SPR Biacore, binder captured by anti-human Fc, HIL6 injected
T1 chain: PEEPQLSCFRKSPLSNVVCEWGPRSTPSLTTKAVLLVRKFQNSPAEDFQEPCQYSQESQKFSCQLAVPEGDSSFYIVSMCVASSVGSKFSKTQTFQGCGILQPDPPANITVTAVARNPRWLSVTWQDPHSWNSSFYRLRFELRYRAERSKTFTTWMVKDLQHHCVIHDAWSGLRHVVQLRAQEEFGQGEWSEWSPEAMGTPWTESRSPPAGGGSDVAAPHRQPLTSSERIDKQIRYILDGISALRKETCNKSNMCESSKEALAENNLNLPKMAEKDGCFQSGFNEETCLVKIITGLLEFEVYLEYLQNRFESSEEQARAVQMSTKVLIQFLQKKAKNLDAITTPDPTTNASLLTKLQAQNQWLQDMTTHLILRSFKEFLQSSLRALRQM
Procedure: (§1) Anti-IL6 binding domains were captured using immobilized anti-mouse Fc polyclonal antibody in the case of anti-IL6 antibodies, or an anti-human Fc monoclonal in the case of SMIPs, Xceptors, and humanized SMIPs. IL6 binding to the anti-IL6 binding domains was studied using single cycle kinetics. Five sequential injections of IL6 were made per cycle starting with the lowest concentration of IL6 (6.4 pM) and progressing to the highest concentration (4,000 pM). The flow rate was 45 μL per minute and each injection of IL6 lasted 7 minutes. At the end of the highest IL6 concentration injection, IL6 was allowed to dissociate for 30 minutes. The data were fit to a one-to-one binding single cycle kinetics model. HIL6 binding was studied by injecting a single concentration of HIL6 (from 6.4-4,000 pM) per cycle for 7 minutes, and then allowing the bound HIL6 to dissociate for either 30 seconds (0 to 800 pM) or one hour (0 and 4,000 pM). […] All analysis was performed using BIAevaluation software.

[2] = biological target: T2, recombinant human IL6 (human, UniProt P05231 30-212); experiment: SPR Biacore, binder captured by anti-human Fc, single cycle kinetics
T2 construct: also called rhIL6; IL6 monomer
Procedure: as §1

[3] = biological target: T3, hu HIL6 AFH monomer (human); experiment: SPR Biacore T100, binder captured by anti-human Fc
T3 chain: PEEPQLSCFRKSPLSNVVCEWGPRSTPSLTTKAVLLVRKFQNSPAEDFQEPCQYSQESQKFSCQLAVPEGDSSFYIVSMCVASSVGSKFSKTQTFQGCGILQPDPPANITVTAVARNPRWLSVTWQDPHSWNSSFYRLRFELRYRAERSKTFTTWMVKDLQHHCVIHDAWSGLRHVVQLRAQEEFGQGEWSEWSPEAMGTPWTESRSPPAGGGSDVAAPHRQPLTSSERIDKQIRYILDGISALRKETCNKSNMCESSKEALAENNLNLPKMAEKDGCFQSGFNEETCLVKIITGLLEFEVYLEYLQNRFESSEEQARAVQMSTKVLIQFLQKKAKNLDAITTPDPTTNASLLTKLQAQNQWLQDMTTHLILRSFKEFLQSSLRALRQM

[4] = biological target: T4, hu HIL6 Fc dimer (dimeric human HIL6/mouse IgG Fc fusion protein) (human); experiment: SPR Biacore T100, binder captured by anti-human Fc
T4 construct: also called human hyper-IL6 (IL6R-IL6-mIgG); dimeric HIL6
T4 chain: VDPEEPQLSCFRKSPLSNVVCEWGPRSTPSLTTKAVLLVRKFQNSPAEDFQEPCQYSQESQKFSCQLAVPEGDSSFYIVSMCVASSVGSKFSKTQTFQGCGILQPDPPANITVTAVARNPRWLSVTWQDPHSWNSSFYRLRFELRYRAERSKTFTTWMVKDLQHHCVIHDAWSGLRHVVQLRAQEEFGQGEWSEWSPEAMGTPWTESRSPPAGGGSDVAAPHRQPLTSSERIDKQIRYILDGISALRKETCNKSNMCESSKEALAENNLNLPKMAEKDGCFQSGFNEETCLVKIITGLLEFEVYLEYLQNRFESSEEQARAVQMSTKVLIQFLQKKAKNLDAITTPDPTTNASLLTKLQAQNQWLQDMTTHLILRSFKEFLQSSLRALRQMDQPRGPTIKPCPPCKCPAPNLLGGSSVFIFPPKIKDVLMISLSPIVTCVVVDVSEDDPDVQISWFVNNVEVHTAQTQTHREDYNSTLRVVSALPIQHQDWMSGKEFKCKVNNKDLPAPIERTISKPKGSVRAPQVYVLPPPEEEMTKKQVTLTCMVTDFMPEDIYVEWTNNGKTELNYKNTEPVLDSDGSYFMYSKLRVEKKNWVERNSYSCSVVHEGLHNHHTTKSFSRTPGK

[5] = biological target: T2, recombinant human IL6; experiment: SPR Biacore T100, binder captured by anti-human Fc
[6] = biological target: T1, Hyper-IL6; experiment: SPR Biacore, mAb captured by anti-mouse Fc, HIL6 injected
[7] = biological target: T2, recombinant human IL6; experiment: SPR Biacore, mAb captured by anti-mouse Fc, single cycle kinetics
[8] = biological target: T5, sIL6R Fc dimer (UniProt P08887 20-358, limits assumed); experiment: SPR Biacore T100, binder captured by anti-human Fc
T5 construct: not shown: Fc
T5 sequence (looked up): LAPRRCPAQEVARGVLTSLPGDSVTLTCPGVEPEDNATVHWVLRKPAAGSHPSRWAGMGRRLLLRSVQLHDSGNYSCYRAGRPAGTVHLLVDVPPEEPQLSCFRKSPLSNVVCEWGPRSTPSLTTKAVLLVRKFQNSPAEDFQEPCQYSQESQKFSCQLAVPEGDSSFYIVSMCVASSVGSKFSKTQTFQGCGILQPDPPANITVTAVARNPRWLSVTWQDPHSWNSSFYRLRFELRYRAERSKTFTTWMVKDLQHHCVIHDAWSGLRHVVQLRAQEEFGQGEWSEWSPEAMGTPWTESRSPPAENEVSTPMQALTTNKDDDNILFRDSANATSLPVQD

B1: TRU(S6)-1063 (Fc fusion)
VH: EVQLVESGGGLVQPGGSLRLSCAASGFTFNTYAMNWVRQAPGKGLEWVGRTVTKSNKYATYYADSVSDRFTISRDDSKNSLYLQMNSLKTEDTAVYYCAREDYYGTLDYWGQGTLVTVSS
VL: EIVLTQSPATLSLSPGERATLSCRASESVHNFGISFMNWYQQKPGQAPRLLIYTASNQGSGIPARFSGSGSGTDFTLTISSLEPEDFAVYYCHQGKEVPWTFGQGTKVEIK
notes: Humanized SMIP fusion protein (single chain)
Kd [1]: 0.05 nM
koff [1]: 0.00018 s⁻¹
kon [1]: 3.6e+06 M⁻¹ s⁻¹
Kd [2]: 0.051 nM
koff [2]: 0.00019 s⁻¹
kon [2]: 3.9e+06 M⁻¹ s⁻¹

B2: TRU(S6)-1064 (Fc fusion)
VH: EVQLVESGGGLVQPGGSLRLSCAASGFTFNTYAMNWVRQAPGKGLEWVGRTVTKSNKYATYYADSVSDRFTISRDDSKNSLYLQMNSLKTEDTAVYYCAREDYYGTLDYWGQGTLVTVSS
VL: DIVLTQSPASLAVSPGQRATITCRASESVHNFGISFMNWYQQKPGQPPKLLIYTASNQGSGVPARFSGSGSGTDFTLTINPVEANDTANYYCHQGKEVPWTFGQGTKVEIK
notes: as for B1
Kd [1]: 0.046 nM
koff [1]: 0.00019 s⁻¹
kon [1]: 4.1e+06 M⁻¹ s⁻¹
Kd [2]: 0.048 nM
koff [2]: 0.0002 s⁻¹
kon [2]: 4.2e+06 M⁻¹ s⁻¹

B4: AH-65 mAb (antibody, V domains shown)
VH: EVQLVESGGGLVQPKGTLRLSCAASGFSFNTYAMNWVRQAPGKSLEWVARTVTKSNKYATYYADSVSDRVTISREDSQSMLYLQMTNLKTEDTAMYYCVREDYYGTLDYWGQGTSVTVSS
VL: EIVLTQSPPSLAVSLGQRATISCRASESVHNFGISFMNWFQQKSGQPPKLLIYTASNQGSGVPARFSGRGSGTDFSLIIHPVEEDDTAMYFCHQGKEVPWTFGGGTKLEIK
Kd [6]: 0.012 nM
koff [6]: 2.4e-05 s⁻¹
kon [6]: 2e+06 M⁻¹ s⁻¹
Kd [7]: 0.007 nM
koff [7]: 2.2e-05 s⁻¹
kon [7]: 3.2e+06 M⁻¹ s⁻¹

B5: CLB-8 mAb (antibody, V domains shown)
VH: EVQLVESGGKLLKPGGSLKLSCAASGFTFSSFAMSWFRQSPEKRLEWVAEISSGGSYTYYPDTVTGRFTISRDNAKNTLYLEMSSLRSEDTAMYYCARGLWGYYALDYWGQGTSVTVSS
VL: QIVLIQSPAIMSASPGEKVTMTCSASSSVSYMYWYQQKPGSSPRLLIYDTSNLASGVPVRFSGSGSGTSYSLTISRMEAEDAATYYCQQWSGYPYTFGGGTKLEIKR
Kd [7]: 0.022 nM
koff [7]: 5e-05 s⁻¹
kon [7]: 2.3e+06 M⁻¹ s⁻¹

B8: BSF2-77 mAb (antibody, V domains shown)
VH: QVQLQQPGAELVKPGASVKLSCKASGYIFTSYWMHWVKQRPGQGLEWIGEINPSNGRTNYNERFKSKATLTVDKSSSTAYIQLSSLTSDDSAVYYCSRSDTKATCDYWGQGTTLTVSS
VL: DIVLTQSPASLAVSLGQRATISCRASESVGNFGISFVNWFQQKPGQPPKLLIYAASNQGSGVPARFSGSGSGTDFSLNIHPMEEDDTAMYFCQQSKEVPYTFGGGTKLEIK
Kd [6]: 0.444 nM
koff [6]: 0.00096 s⁻¹
kon [6]: 2.2e+06 M⁻¹ s⁻¹
Kd [7]: 0.41 nM
koff [7]: 0.002 s⁻¹
kon [7]: 4.8e+06 M⁻¹ s⁻¹

Now from value to binder:

Kd [3]: 6.3 nM
Kd [4]: 25 nM
binding result [5]: no binding (tested: 100 nM)
B3: TRU(XT6)-1025 (Fc fusion)
chain: LPAQVAFTPYAPEPGSTCRLREYYDQTAQMCCSKCSPGQHAKVFCTKTSDTVCDSCEDSTYTQLWNWVPECLSCGSRCSSDQVETQACTREQNRICTCRPGWYCALSKQEGCRLCAPLRKCRPGFGVARPGTETSDVVCKPCAPGTFSNTTSSTDICRPHQICNVVAIPGNASMDAVCTSTSPTRSMAPGAVHLPQPVSTRSQHTQPTPEPSTAPSTSFLLPMGPSPPAEGSTGDTGEPKSSDKTHTCPPCPAPEAAGAPSVFLFPPKPKDTLMISRTPEVTCVVVDVSHEDPEVKFNWYVDGVEVHNAKTKPREEQYNSTYRVVSVLTVLHQDWLNGKAYACAVSNKALPAPIEKTISKAKGQPREPQVYTLPPSRDELTKNQVSLTCLVKGFYPSDIAVEWESNGQPENNYKTTPPVLDSDGSFFLYSKLTVDKSRWQQGNVFSCSVMHEALHNHYTQKSLSLSPGQRHNNSSLNTRTQKARHSPNSEVQLLESGGGLVQPGGSLRLSCAASGFTFSHYGMHWVRQAPGKGLEWVSSIYPGMTQYADSVKGRFTISRDNSKNTLYLQMNSLRAEDTAVYYCARDRGSGIDAFDIWGQGTMVTVSSGGGGSGGGGSGGGGSQSELTQPPSVSVSPGQTATVSCSGEKLGDRYAWWYQQKAGQSPVLVIYQDTKRPSGVPDRFSGSNSGTSASLVISGPQSEDEADYYCAAWDDSLKGVVFGGGSKLTVL
notes: Xceptor, TNFRSF1B ectodomain N-terminal, anti-IL6xR domain C-terminal

Kd [3]: 3000 nM
Kd [4]: 49 nM
binding result [5]: no binding (tested: 100 nM)
binding result [8]: no binding (tested: 100 nM)
B6: TRU(XT6)-1029 (Fc fusion)
chain: LPAQVAFTPYAPEPGSTCRLREYYDQTAQMCCSKCSPGQHAKVFCTKTSDTVCDSCEDSTYTQLWNWVPECLSCGSRCSSDQVETQACTREQNRICTCRPGWYCALSKQEGCRLCAPLRKCRPGFGVARPGTETSDVVCKPCAPGTFSNTTSSTDICRPHQICNVVAIPGNASMDAVCTSTSPTRSMAPGAVHLPQPVSTRSQHTQPTPEPSTAPSTSFLLPMGPSPPAEGSTGDTGEPKSSDKTHTCPPCPAPEAAGAPSVFLFPPKPKDTLMISRTPEVTCVVVDVSHEDPEVKFNWYVDGVEVHNAKTKPREEQYNSTYRVVSVLTVLHQDWLNGKAYACAVSNKALPAPIEKTISKAKGQPREPQVYTLPPSRDELTKNQVSLTCLVKGFYPSDIAVEWESNGQPENNYKTTPPVLDSDGSFFLYSKLTVDKSRWQQGNVFSCSVMHEALHNHYTQKSLSLSPGQRHNNSSLNTRTQKARHSPNSEVQLLESGGGLVQPGGSLRLSCAASGFTFSSYWMHWVRQAPGKGLEWVSSIYPSGGSTEYADSVKGRFTISRDNSKNTLYLQMNSLRAEDTAVYYCAKGIWFDPWGQGTLVTVSSGGGGSGGGGSGGGGSQDIQMTQSPATLSASVGDRVTITCRSSQRISGYLNWYQQQPGKAPKLLIYAASTLQSGVPSRISGSGSGTDFSLIISSLQPEDVATYYCQQSYSPPFTFGQGTKVEIK
notes: as for B3

Kd [3]: 190 nM
Kd [4]: 270 nM
binding result [5]: no binding (tested: 100 nM)
binding result [8]: no binding (tested: 100 nM)
B7: TRU(XT6)-1013 (Fc fusion)
chain: LPAQVAFTPYAPEPGSTCRLREYYDQTAQMCCSKCSPGQHAKVFCTKTSDTVCDSCEDSTYTQLWNWVPECLSCGSRCSSDQVETQACTREQNRICTCRPGWYCALSKQEGCRLCAPLRKCRPGFGVARPGTETSDVVCKPCAPGTFSNTTSSTDICRPHQICNVVAIPGNASMDAVCTSTSPTRSMAPGAVHLPQPVSTRSQHTQPTPEPSTAPSTSFLLPMGPSPPAEGSTGDTGEPKSSDKTHTCPPCPAPEAAGAPSVFLFPPKPKDTLMISRTPEVTCVVVDVSHEDPEVKFNWYVDGVEVHNAKTKPREEQYNSTYRVVSVLTVLHQDWLNGKAYACAVSNKALPAPIEKTISKAKGQPREPQVYTLPPSRDELTKNQVSLTCLVKGFYPSDIAVEWESNGQPENNYKTTPPVLDSDGSFFLYSKLTVDKSRWQQGNVFSCSVMHEALHNHYTQKSLSLSPGQRHNNSSLNTRTQKARHSPNSEVQLLESGGGLVQPGGSLRLSCAASGFTFSGYVMGWVRQAPGKGLEWVSSISPSGGYTLYADSVKGRFTISRDNSKNTLYLQMNSLRAEDTAVYYCARAFSTRWYWGAFDIWGQGTMVTVSSGGGGSGGGGSGGGGSQDIQMTQSPATLSLSPGERATLSCRASQSVRSYLAWYQQKPGQAPRLLIYDASNRATGIPARFSGSGSGTDFTLTITSLQPEDIATYYCQQYDNLPLTFGGGTKVEIK
notes: as for B3
